From the supplement of paper PMC5998384

Experiments:
HeLa Kyoto [1] = experiment: solubility in G1/S (NP-40 vs SDS abundance) (log2 ratio); higher = more soluble; settings: cell cycle stage: G1/S
HeLa Kyoto [2] = experiment: melting temperature (median over replicates), in situ; higher = more thermally stable
HeLa Kyoto [3] = experiment: solubility change mitosis vs G1/S (difference of NP-40 vs SDS log2 ratios) (log2 ratio difference); higher = more soluble in mitosis
HeLa Kyoto [4] = experiment: thermal stability score vs G1/S (z-score of summed log2 fold changes over temperatures); higher = more thermally stable than in G1/S
[5] = cell cycle stage: early G1 (4.5 h after nocodazole release)
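Wherever melting temperature (median over replicates), in situ is given: HeLa Kyoto cells synchronized by double thymidine or nocodazole block, proteins quantified by TMT10plex mass spectrometry, three independent biological replicates.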
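Wherever solubility change mitosis vs G1/S (difference of NP-40 vs SDS log2 ratios) is given: synchronized HeLa Kyoto cells (double thymidine block for G1/S, nocodazole release for mitosis), protein amounts in NP-40 versus SDS lysates quantified by mass spectrometry, three biological replicates.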
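Wherever solubility in G1/S (NP-40 vs SDS abundance) is given: HeLa Kyoto cells arrested at G1/S by double thymidine block, proteins quantified by TMT10plex mass spectrometry in mild NP-40 versus SDS extracts, three biological replicates.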
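Wherever thermal stability score vs G1/S (z-score of summed log2 fold changes over temperatures) is given: synchronized HeLa Kyoto cells, proteins quantified by TMT10plex mass spectrometry, three biological replicates, mitosis taken 0.5 h after nocodazole release, G1/S directly after double thymidine block.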

Row | Sequence | solubility in G1/S (log2) (HeLa Kyoto [1]) | melting temperature (HeLa Kyoto [2]; cell cycle stage: G1/S) [°C] | melting temperature (HeLa Kyoto [2]; cell cycle stage: mitosis) [°C] | solubility change mitosis (log2) (HeLa Kyoto [3]) | thermal stability score (HeLa Kyoto [4]; [5]) | thermal stability score (HeLa Kyoto [4]; cell cycle stage: mitosis)
1 | MPKKFQGENTKSAAARARRAEAKAAADAKKQKELEDAYWKDDDKHVMRKEQRKEEKEKRRLDQLERKKETQRLLEEEDSKLKGGKAPRVATSSKVTRAQIEDTLRRDHQLREAPDTAEKAKSHLEVPLEENVNRRVLEEGSVEARTIEDAIAVLSVAEEAADRHPERRMRAAFTAFEEAQLPRLKQENPNMRLSQLKQLLKKEWLRSPDNPMNQRAVPFNAPK [CCDC124] | 0.214 | 57.1 | 53.7 | 0.537 | 0.653 | -5.08
2 | MPKRKAAGQGDMRQEPKRRSARLSAMLVPVTPEVKPKRTSSSRKMKTKSDMMEENIDTSAQAVAETKQEAVVEEDYNENAKNGEAKITEAPASEKEIVEVKEENIEDATEKGGEKKEAVAAEVKNEEEDQKEDEEDQNEEKGEAGKEDKDEKGEEDGKEDKNGNEKGEDAKEKEDGKKGEDGKGNGEDGKEKGEDEKEEEDRKETGDGKENEDGKEKGDKKEGKDVKVKEDEKEREDGKEDEGGNEEEAGKEKEDLKEEEEGKEEDEIKEDDGKKEEPQSIV [HMGN5] | 0.255 | 59.9 | 59.8 | 0.272 | -0.636 | -5.4
3 | MPKRKVTFQGVGDEEDEDEIIVPKKKLVDPVAGSGGPGSRFKGKHSLDSDEEEDDDDGGSSKYDILASEDVEGQEAATLPSEGGVRITPFNLQEEMEEGHFDADGNYFLNRDAQIRDSWLDNIDWVKIRERPPGQRQASDSEEEDSLGQTSMSAQALLEGLLELLLPRETVAGALRRLGARGGGKGRKGPGQPSSPQRLDRLSGLADQMVARGNLGVYQETRERLAMRLKGLGCQTLGPHNPTPPPSLDMFAEELAEEELETPTPTQRGEAESRGDGLVDVMWEYKWENTGDAELYGPFTSAQMQTWVSEGYFPDGVYCRKLDPPGGQFYNSKRIDFDLYT [CD2BP2] | 0.00357 | 47.9 | 51.2 | 0.301 | 0.517 | 0.833
4 | MPKTISVRVTTMDAELEFAIQPNTTGKQLFDQVVKTIGLREVWFFGLQYQDTKGFSTWLKLNKKVTAQDVRKESPLLFKFRAKFYPEDVSEELIQDITQRLFFLQVKEGILNDDIYCPPETAVLLASYAVQSKYGDFNKEVHKSGYLAGDKLLPQRVLEQHKLNKDQWEERIQVWHEEHRGMLREDAVLEYLKIAQDLEMYGVNYFSIKNKKGSELWLGVDALGLNIYEQNDRLTPKIGFPWSEIRNISFNDKKFVIKPIDKKAPDFVFYAPRLRINKRILALCMGNHELYMRRRKPDTIEVQQMKAQAREEKHQKQMERAMLENEKKKREMAEKEKEKIEREKEELMERLKQIEEQTKKAQQELEEQTRRALELEQERKRAQSEAEKLAKERQEAEEAKEALLQASRDQKKTQEQLALEMAELTARISQLEMARQKKESEAVEWQQKAQMVQEDLEKTRAELKTAMSTPHVAEPAENEQDEQDENGAEASADLRADAMAKDRSEEERTTEAEKNERVQKHLKALTSELANARDESKKTANDMIHAENMRLGRDKYKTLRQIRQGNTKQRIDEFESM [MSN] | 0.0519 | 52.1 | 52 | -0.0148 | -0.264 | 1.56
5 | MPLENLEEEGLPKNPDLRIAQLRFLLSLPEHRGDAAVRDELMAAVRDNNMAPYYEALCKSLDWQIDVDLLNKMKKANEDELKRLDEELEDAEKNLGESEIRDAMMAKAEYLCRIGDKEGALTAFRKTYDKTVALGHRLDIVFYLLRIGLFYMDNDLITRNTEKAKSLIEEGGDWDRRNRLKVYQGLYCVAIRDFKQAAELFLDTVSTFTSYELMDYKTFVTYTVYVSMIALERPDLREKVIKGAEILEVLHSLPAVRQYLFSLYECRYSVFFQSLAVVEQEMKKDWLFAPHYRYYVREMRIHAYSQLLESYRSLTLGYMAEAFGVGVEFIDQELSRFIAAGRLHCKIDKVNEIVETNRPDSKNWQYQETIKKGDLLLNRVQKLSRVINM [PSMD6] | -0.15 | 53.3 | 53.2 | -0.189 | 1 | 1.09
